{"source": "patent US8653242B2", "about": "“Therapeutic antibodies against flagellated Pseudomonas aeruginosa” (priority 2010, dated 2014)", "molecules": {"B1": {"name": "LST-004 (antibody, V domains shown)", "VH": "MNFGLSLVFLVLILKGVQCEVMLVESGGGLVKPGGSLKLSCAASGFTFSTFTMSWVRQTPEKRLECVATINGGGGNTYYPDSVKGRFTISRDNAKNNLYLQMSSLRSEDTAFYFCSRLYGIYAMDYWGQGTSVTVSS", "VL": "MKSHTQVFVYMLLWLSGVEGDIVMTQSHIFMSTSVGDRVSITCKASQDVGSAVAWYQQKPGQSPKVLIYWTSTRHTGVPDRFAGSGSGTEFTLTISNVQSEDLADYFCQQYSSYPLTFGAGTKLELKR", "modifications": "human IgG1 constant domains lacking entries"}}, "key": {"[1]": {"biological_target": "P. aeruginosa flagellin type B (Pseudomonas aeruginosa, UniProt P72151)", "sequence (P72151 whole entry)": "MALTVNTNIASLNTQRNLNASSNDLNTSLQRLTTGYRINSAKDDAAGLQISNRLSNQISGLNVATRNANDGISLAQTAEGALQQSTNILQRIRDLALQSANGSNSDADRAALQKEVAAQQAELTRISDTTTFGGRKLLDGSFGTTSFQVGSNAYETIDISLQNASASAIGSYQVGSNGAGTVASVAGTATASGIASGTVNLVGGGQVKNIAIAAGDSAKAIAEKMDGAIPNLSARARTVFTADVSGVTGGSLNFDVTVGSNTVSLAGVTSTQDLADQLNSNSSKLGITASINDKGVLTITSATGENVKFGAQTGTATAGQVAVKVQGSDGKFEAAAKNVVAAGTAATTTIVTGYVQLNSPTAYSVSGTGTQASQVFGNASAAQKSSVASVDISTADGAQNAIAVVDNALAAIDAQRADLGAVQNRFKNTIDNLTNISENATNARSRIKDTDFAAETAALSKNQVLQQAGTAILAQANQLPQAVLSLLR", "test": "ELISA of LST-009 on recombinant flagellin type B", "type": "binding", "settings": "250 ng/well antigen", "description": "Two hundred and fifty ng (250 ng) of P. aeruginosa flagellin type A or B (50 μl from 5 μg/ml) were dispensed into each well of ELISA plates (Nunc, cat #442404) and coating allowed to proceed for 2 hours at room temperature with gentle shaking. Plates were then blocked with 200 μl PBS-10% fetal bovine serum (FBS) overnight at 4° C.\nTo that end, following three washes with PBS-0.05% Tween-20, 50 μl of a goat anti-human IgG (Fc)-HRP (Cat # A80-104P; Bethyl, Tex., USA) was added at a dilution of 1:10,000 in PBS-10% FBS with incubation allowed to proceed for 60 min at room temperature. Following 3 separate washes with PBS-Tween-20 (0.05%) and gentle tapping of plates on paper towels to remove final traces of wash buffer, 50 μl TMB/E substrate solution (Cat #ES001-500 ml; Millipore) was added for 15 min at room temperature. Thereafter, signal was quenched with 50 μl 10% H2SO4 and plates read at 450 nm in a Microtiter plate reader (Anthos MultiRead 400)."}, "[2]": {"tested_on": "PA27853 (flagellin type A)", "test": "ELISA on formaldehyde-fixed PA27853", "type": "binding, P. aeruginosa", "settings": "fixed whole bacteria ELISA, 1 nM mAb", "description": "(§1) From a single fresh bacterial colony, PA strains 27853 (harboring flagellin type A) or Ka02 (harboring flagellin type B) were grown overnight in 5 ml LB at 37° C. Thereafter, bacterial cultures were centrifuged at 1500 g for 30 min and following removal of the clear supernatant, pellets were washed twice with 20 ml PBS with intervening centrifugation. The final pellet was resuspended in a volume of PBS (˜10 ml) and adjusted to generate an OD600 of ˜0.2 and maintained on ice prior to coating on ELISA plates which were prepared as follows: to the wells of flat-bottomed ELISA plates (Nunc, cat #442404), 50 μl poly-L-lysine (PLL, Sigma Cat # P-1524) of a 1 μg/ml solution was added and plates were incubated for 30 min at room temperature. Thereafter, non-adsorbed PLL was removed. Fifty μl of the appropriate bacterial suspensions from the different strains at 0.2 OD600 nm were added to the PLL-coated ELISA plates. In some wells, a “mixed-bacterial population” was added. To that end, 25 μl of PA 27853 and 25 μl of Ka02 bacterial suspensions were added to the same wells. […]\nELISA plates containing the fixed P. aeruginosa bacteria, were blocked by adding 200 μl PBS-10% FBS for 60 min at room temperature. […] Thereafter, signal was quenched with 50 μA 10% H2SO4 and plates read at 450 nm in a Microtiter plate reader (Anthos MultiRead 400)."}, "[3]": {"tested_on": "mixed PA27853 and Ka02 bacteria", "test": "ELISA on mixed fixed bacteria", "type": "binding, P. aeruginosa", "settings": "1 nM mAb; wells coated with half the amount of each strain", "description": "as §1\nELISA plates containing the fixed P. aeruginosa bacteria, were blocked by adding 200 μl PBS-10% FBS for 60 min at room temperature. […] Thereafter, signal was quenched with 50 μA 10% H2SO4 and plates read at 450 nm in a Microtiter plate reader (Anthos MultiRead 400). […]"}}}
{"molecule": "B1", "values": [{"measurement": "EC50 towards P. aeruginosa flagellin type B", "setting": "[1]", "value": "approximately 300 ng/ml"}, {"measurement": "binding to PA27853", "setting": "[2]", "value": "minimal signal"}, {"measurement": "OD as compared to FIG. 16 (full amount of bacteria)", "setting": "[3]", "value": "approximately 50%"}]}
